Laboratory results published in publication doi:10.1101/2023.02.23.529646 (bioRxiv, 2023).
Where a chain is given by its changes, count along the chain named.

Tests used:
ACAD9WT (res. 38-621) = target: T1, ACAD9WT (res. 38-621) (human, UniProt Q9H845 38-621); test: cryo-EM structure
T1 sequence: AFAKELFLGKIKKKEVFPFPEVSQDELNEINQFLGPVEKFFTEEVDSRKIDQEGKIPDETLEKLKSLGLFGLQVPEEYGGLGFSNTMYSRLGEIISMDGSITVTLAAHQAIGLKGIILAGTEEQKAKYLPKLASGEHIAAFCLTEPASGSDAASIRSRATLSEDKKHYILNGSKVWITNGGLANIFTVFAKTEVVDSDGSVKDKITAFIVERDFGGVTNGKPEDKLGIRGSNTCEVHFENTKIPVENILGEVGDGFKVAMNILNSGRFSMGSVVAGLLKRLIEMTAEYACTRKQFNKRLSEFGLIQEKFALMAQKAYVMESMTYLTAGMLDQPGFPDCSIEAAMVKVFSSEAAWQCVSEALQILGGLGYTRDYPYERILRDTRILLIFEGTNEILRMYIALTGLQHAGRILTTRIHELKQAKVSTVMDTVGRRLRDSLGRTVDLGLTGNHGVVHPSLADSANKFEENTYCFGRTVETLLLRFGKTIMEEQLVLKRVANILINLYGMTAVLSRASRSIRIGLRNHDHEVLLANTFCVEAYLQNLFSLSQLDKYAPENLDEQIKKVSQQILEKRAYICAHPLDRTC

ACAD9_(SR194TS) = target: T2, ACAD9_(SR194TS) (human, UniProt Q9H845 38-621, SR194TS); test: dynamic light scattering
T2 sequence: T1 sequence with S157T, R158S

ACAD9_(A184S) = target: T3, ACAD9_(A184S) (human, UniProt Q9H845 38-621, A184S); test: dynamic light scattering
T3 sequence: T1 sequence with A147S

B1: ECSIT_(CTER) (residues 221-431) (domain or fragment)
chain: QDPVELAMFGLRHMEPDLSARVTIYQVPLPKDSTGAADPPQPHIVGIQSPDQQAALARHNPARPVFVEGPFSLWLRNKCVYYHILRADLLPPEEREVEETPEEWNLYYPMQLDLEYVRSGWDNYEFDINEVEEGPVFAMCMAGAHDQATMAKWIQGLQETNPTLAQIPVVFRLAGSTRELQTSSAGLEEPPLPEDHQEEDDNLQRQQQGQS
**Q.** How did the “stoichiometry N” value (ACAD9WT (res. 38-621)) turn out when B1 was run?
**A.** The value was 1 ECSIT_(CTER) per ACAD9 protomer.

**Q.** Does B1 bind (ACAD9_(SR194TS))?
**A.** Result: binds

**Q.** Does B1 bind (ACAD9_(A184S))?
**A.** Result: binds
